Like-named read-outs stand apart in the source and are kept apart here. Each block holds one binder with its values, some of them ahead of it.
Assays:
mouse CD137 = molecular target: T1, mouse CD137 (mouse, UniProt P20334 24-187, limits assumed); assay: SPR (Biacore T200), receptor on CM5 chip
T1 construct: Amine-coupled to a CM5 chip; also called 4-1BB
T1 sequence (looked up): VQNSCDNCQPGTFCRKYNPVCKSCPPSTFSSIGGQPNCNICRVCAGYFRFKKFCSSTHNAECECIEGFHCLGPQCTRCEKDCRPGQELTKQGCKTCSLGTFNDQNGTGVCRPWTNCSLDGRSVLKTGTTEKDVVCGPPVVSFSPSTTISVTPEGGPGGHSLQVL

mouse TNFRII = molecular target: T2, mouse TNFRII (mouse, UniProt P25119 23-258, limits assumed); assay: SPR (Biacore T200), receptor on CM5 chip
T2 construct: Amine-coupled to a CM5 chip
T2 sequence (looked up): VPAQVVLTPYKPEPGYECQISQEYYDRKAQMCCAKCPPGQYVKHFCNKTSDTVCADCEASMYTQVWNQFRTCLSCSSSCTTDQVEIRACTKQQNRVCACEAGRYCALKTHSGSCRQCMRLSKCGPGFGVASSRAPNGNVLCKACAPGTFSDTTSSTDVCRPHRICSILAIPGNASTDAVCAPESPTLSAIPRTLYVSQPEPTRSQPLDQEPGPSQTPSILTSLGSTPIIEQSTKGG

mouse NGFR = molecular target: T3, mouse NGFR (mouse, UniProt Q9Z0W1 32-254, limits assumed); assay: SPR (Biacore T200), receptor on CM5 chip
T3 construct: Amine-coupled to a CM5 chip
T3 sequence (looked up): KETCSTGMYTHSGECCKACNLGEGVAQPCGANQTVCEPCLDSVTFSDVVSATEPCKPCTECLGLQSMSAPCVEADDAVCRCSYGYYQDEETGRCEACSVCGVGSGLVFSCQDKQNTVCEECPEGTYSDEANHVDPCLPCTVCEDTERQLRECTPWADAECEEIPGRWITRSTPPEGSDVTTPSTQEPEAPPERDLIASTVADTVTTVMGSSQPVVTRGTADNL

mouse TNFRI = molecular target: T4, mouse TNFRI (mouse, UniProt P25118 22-212, limits assumed); assay: SPR (Biacore T200), receptor on CM5 chip
T4 construct: Amine-coupled to a CM5 chip
T4 sequence (looked up): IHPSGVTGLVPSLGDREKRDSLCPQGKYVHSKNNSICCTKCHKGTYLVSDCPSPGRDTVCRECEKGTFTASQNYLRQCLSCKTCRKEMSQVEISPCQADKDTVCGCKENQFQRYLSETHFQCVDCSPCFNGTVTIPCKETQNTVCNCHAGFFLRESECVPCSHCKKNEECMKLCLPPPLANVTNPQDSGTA

mouse CD40 = molecular target: T5, mouse CD40 (mouse, UniProt P27512 24-193, limits assumed); assay: SPR (Biacore T200), receptor on CM5 chip
T5 construct: Amine-coupled to a CM5 chip
T5 sequence (looked up): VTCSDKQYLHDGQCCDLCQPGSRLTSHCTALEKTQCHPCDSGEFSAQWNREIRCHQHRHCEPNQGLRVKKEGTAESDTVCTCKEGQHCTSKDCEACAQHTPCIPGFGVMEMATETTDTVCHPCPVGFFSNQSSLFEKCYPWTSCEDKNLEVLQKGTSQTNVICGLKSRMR

[1] = molecular target: T6, mouse OX40 receptor, cell-expressed (DO11.10-mOX40) (mouse, UniProt P47741 20-272); assay: cell-based or functional assay
T6 sequence: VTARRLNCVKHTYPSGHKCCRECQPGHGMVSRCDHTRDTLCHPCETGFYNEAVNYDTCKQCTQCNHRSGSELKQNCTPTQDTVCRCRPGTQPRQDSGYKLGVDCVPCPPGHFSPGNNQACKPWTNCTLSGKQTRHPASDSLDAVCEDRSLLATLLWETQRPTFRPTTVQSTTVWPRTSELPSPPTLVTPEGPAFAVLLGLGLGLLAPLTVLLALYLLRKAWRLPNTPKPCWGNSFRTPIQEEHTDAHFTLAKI

[2] = molecular target: T6, mouse OX40 receptor, cell-expressed …; assay: cell-based or functional assay; remark: listed apart in the source
[3] = molecular target: T6, mouse OX40 receptor, cell-expressed …; assay: cell-based or functional assay; remark: listed apart in the source
[4] = molecular target: T6, mouse OX40 receptor, cell-expressed …; assay: flow cytometry on DO11.10-mOX40 cells
Procedure: Non-specific binding was also assessed by testing for binding to HEK cells not expressing OX40 by flow cytometry.
DO11.10 mOX40 or HEK cell suspensions were prepared in PBS+2% BSA (Sigma, A7906) and seeded at 4×10⁶ cell/ml with 50 μl/well in V-bottomed 96-well plates (Costar, 3897). […] The data was fit using log (agonist) vs response in GraphPad Prism Software.

[5] = molecular target: T6, mouse OX40 receptor, cell-expressed …; assay: cell-based or functional assay; remark: listed apart in the source
[6] = molecular target: T6, mouse OX40 receptor, cell-expressed …; assay: flow cytometry, labelled antibody on DO11.10-mOX40 cells

binding result (mouse CD137): no binding (tested: 1 µM)
binding result (mouse TNFRII): no binding (tested: 1 µM)
binding result (mouse NGFR): no binding (tested: 1 µM)
binding result (mouse TNFRI): no binding (tested: 1 µM)
binding result (mouse CD40): no binding (tested: 1 µM)
B1: FS20m-232-91AA/HEL D1.3 (bispecific antibody, human IgG1, kappa, L234A L235A, V domains shown)
VH: QVQLQESGPGLVRPSQTLSLTCTVSGSTFSGYGVNWVRQPPGRGLEWIGMIWGDGNTDYNSALKSRVTMLVDTSKNQFSLRLSSVTAADTAVYYCARERDYRLDYWGQGSLVTVSS
VL: DIQMTQSPASLSASVGETVTITCRASGNIHNYLAWYQQKQGKSPQLLVYNAKTLADGVPSRFSGSGSGTQYSLKINSLQPEDFGSYYCQHFWSTPRTFGGGTKLEIKR
notes: Human IgG1 with anti-HEL D1.3 Fab and LALA; also called FS20m-232-91 in mock (HEL D1.3 LALA) mAb^2 format; FS20m-232-91/HelD1.3 mock mAb^2 with LALA mutation

EC50 of IL-2 release, Xlink (FITC-dextran) [1]: 0.158 nM
EC50 of IL-2 release, no crosslinker [1]: 76.4 nM
EC50 of IL-2 release, HPAC cells present, + FITCdex [2]: 0.548 nM
EC50 of IL-2 release, HPAC cells present, + G1/E2A + a-hFc + FITCdex [2]: 2.09 nM
EC50 of IL-2 release, crosslinked (FITC-dextran) [3]: 0.67 nM
EC50 [4]: 1.01 nM
EC50 of IL-2 release, Xlink (FITC-dextran) [5]: 0.629 nM
B2: FS20m-232-91AA/4420 (bispecific antibody, human IgG1, kappa, L234A L235A)
heavy: EVKLDETGGGLVQPGRPMKLSCVASGFTFSDYWMNWVRQSPEKGLEWVAQIRNKPYNYETYYSDSVKGRFTISRDDSKSSVYLQMNNLRVEDMGIYYCTGSYYGMDYWGQGTSVTVSSASTKGPSVFPLAPSSKSTSGGTAALGCLVKDYFPEPVTVSWNSGALTSGVHTFPAVLQSSGLYSLSSVVTVPSSSLGTQTYICNVNHKPSNTKVDKKVEPKSCDKTHTCPPCPAPEAAGGPSVFLFPPKPKDTLMISRTPEVTCVVVDVSHEDPEVKFNWYVDGVEVHNAKTKPREEQYNSTYRVVSVLTVLHQDWLNGKEYKCKVSNKALPAPIEKTISKAKGQPREPQVYTLPPSRDELFDPMYYYNQVSLTCLVKGFYPSDIAVEWESNGEPLWDYKTTPPVLDSDGSFFLYSKLTVWRDRWEDGNVFSCSVMHEALHNHYTQKSLSLSPG
light: DVVMTQTPLSLPVSLGDQASISCRSSQSLVHSNGNTYLRWYLQKPGQSPKVLIYKVSNRFSGVPDRFSGSGSGTDFTLKISRVEAEDLGVYFCSQSTHVPWTFGGGTKLEIKRTVAAPSVFIFPPSDEQLKSGTASVVCLLNNFYPREAKVQWKVDNALQSGNSQESVTEQDSKDSTYSLSSTLTLSKADYEKHKVYACEVTHQGLSSPVTKSFNRGEC
notes: Human IgG1 with anti-FITC 4420 Fab and LALA; The mouse OX40 site is in the CH3 domain; also called mFS20-232-91AA/4420; anti-mouse OX40 Fcab FS20m-232-91 in mock (4420 LALA) mAb^2 format

EC50 of IL-2 release, Xlink (anti-hCH2) [1]: 0.463 nM
EC50 of IL-2 release, crosslinked (anti-human CH2 mAb) [3]: 1.75 nM
EC50 [4]: 3.1 nM
B3: G1AA/OX86 (antibody, human IgG1, kappa, L234A L235A, V domains shown)
VH: QVQLKESGPGLVQPSQTLSLTCTVSGFSLTGYNLHWVRQPPGKGLEWMGRMRYDGDTYYNSVLKSRLSISRDTSKNQVFLKMNSLQTDDTAIYYCTRDGRGDSFDYWGQGVMVTVSS
VL: DIVMTQGALPNPVPSGESASITCRSSQSLVYKDGQTYLNWFLQRPGQSPQLLTYWMSTRASGVSDRFSGSGSGTYFTLKISRVRAEDAGVYYCQQVREYPFTFGSGTKLEIKR
notes: also called anti-mouse OX40 mAb OX86 in a human IgG1 backbone with the LALA mutation

fluorescence over non-transduced cells [6]: ≥ 10 fold
B4: antibody OX86 (Biolegend cat no 119408) (antibody, V domains shown)
VH: QVQLKESGPGLVQPSQTLSLTCTVSGFSLTGYNLHWVRQPPGKGLEWMGRMRYDGDTYYNSVLKSRLSISRDTSKNQVFLKMNSLQTDDTAIYYCTRDGRGDSFDYWGQGVMVTVSS
VL: DIVMTQGALPNPVPSGESASITCRSSQSLVYKDGQTYLNWFLQRPGQSPQLLTYWMSTRASGVSDRFSGSGSGTYFTLKISRVRAEDAGVYYCQQVREYPFTFGSGTKLEIK
